# Reference: PMC5473807, “Distribution and kinetics of the Kv1.3-blocking peptide HsTX1[R14A] in experimental rats” (Scientific Reports, 2017)
# Read-outs that look alike come from different tables or passages of the source.
# Assay: In vivo biodistribution by organ and tissue extraction
# Parameters: species or system male Wistar rats
# Details: for tissue uptake dose at 4 h / SUV at 24 h / tissue uptake dose at 24 h / SUV at 48 h / tissue uptake dose at 48 h / SUV at 1 h / tissue uptake dose at 1 h / SUV at 4 h / tissue uptake dose at 5 min / SUV at 5 min / tissue uptake dose: male, Wistar, total radioactivity; for tissue uptake dose at 4 h / SUV at 4 h: 240 min p.i.; for tissue uptake dose at 4 h / SUV at 24 h / tissue uptake dose at 24 h / SUV at 48 h / tissue uptake dose at 48 h / SUV at 1 h / tissue uptake dose at 1 h / SUV at 4 h / tissue uptake dose at 5 min / SUV at 5 min: mean ± SD; for SUV at 24 h / tissue uptake dose at 24 h: 1440 min p.i.; for SUV at 48 h / tissue uptake dose at 48 h: 2880 min p.i.; for SUV at 1 h / tissue uptake dose at 1 h: 60 min p.i.; for tissue uptake dose at 5 min / SUV at 5 min: 5 min p.i.; for tissue uptake dose: whole body, end of observation (Fig. 7c), time not given, mean ± SEM, read-out: remaining activity in the body; for AUC Kidney / AUC Liver: calculated between 1 and 48 h; for t1/2 Blood / t1/2 Kidney / t1/2 Liver: calculated from 24 to 48 h
# Procedure: The present study includes data obtained from a total of 50 animals. Four animals (body weight 227 ± 10 g) for each time point were injected intravenously into a tail vein or subcutaneously with approximately 0.3 MBq ([…]) [^64Cu]Cu-NOTA-HsTX1[R14A] conjugate in 0.5 mL electrolyte solution E-153 (Serumwerk Bernburg, Germany). Animals were euthanised at 5, 60, 240, 1440 and 2880 min post-injection. Blood and the major organs were collected, weighed, and counted in a cross-calibrated γ-counter (Isomed 1000, Isomed GmbH, Dresden) and Wallac WIZARD Automatic Gamma Counter (PerkinElmer, Germany). The radioactivity of the tissue samples was decay-corrected and calibrated by comparing the counts in tissue with the counts in aliquots of the injected radiotracer that had been measured in the γ-counter at the same time. The activity in the selected organs was expressed as percent-injected dose per organ (% ID) and the activity concentration in tissues and organs as standardised uptake value (SUV). Values are quoted as mean ± standard error of mean (SEM) for each group of four animals.
# [1] = testes, iv, 0.3 MBq, rat, i.v., n=4, read-out: Testes activity amount
# [2] = testes, sc, 0.3 MBq, rat, s.c., n=4, read-out: Testes SUV
# [3] = testes, sc, 0.3 MBq, rat, s.c., n=4, read-out: Testes activity amount
# [4] = thymus, iv, 0.3 MBq, rat, i.v., n=4, read-out: Thymus activity amount
# [5] = thymus, iv, 0.3 MBq, rat, i.v., n=8, read-out: Thymus activity amount
# [6] = thymus, iv, rat, i.v., n=4, read-out: Thymus SUV
# [7] = thymus, iv, rat, i.v., n=8, read-out: Thymus SUV
# [8] = thymus, sc, 0.3 MBq, rat, s.c., n=4, read-out: Thymus activity amount
# [9] = thymus, sc, rat, s.c., n=4, read-out: Thymus SUV
# [10] = thyroid, iv, 0.3 MBq, rat, i.v., n=4, read-out: Thyroid activity amount
# [11] = thyroid, iv, 0.3 MBq, rat, i.v., n=8, read-out: Thyroid activity amount
# [12] = thyroid, sc, 0.3 MBq, rat, s.c., n=4, read-out: Thyroid activity amount
# [13] = white adipose tissue, iv, 0.3 MBq, rat, i.v., n=4, read-out: WAT (white adipose tissue) SUV
# [14] = white adipose tissue, iv, 0.3 MBq, rat, i.v., n=8, read-out: WAT (white adipose tissue) SUV
# [15] = white adipose tissue, sc, 0.3 MBq, rat, s.c., n=4, read-out: WAT (white adipose tissue) SUV
# [16] = whole blood, iv, 0.3 MBq, rat, i.v., n=4, read-out: Blood SUV
structure (smiles),measurement,setting,value
"CSCC[C@@H]1NC(=O)[C@@H]2CSSC[C@H](NC(=O)[C@H](CO)NC(=O)[C@H](C)NC(=O)COCCOCCNC(=O)CN3CCN(CC(=O)O)CCN(CC(=O)O)CC3)C(=O)N[C@@H](CCCNC(=N)N)C(=O)N[C@@H]([C@@H](C)O)C(=O)N3CCC[C@H]3C(=O)N[C@@H](CCCCN)C(=O)N[C@@H](CC(=O)O)C(=O)N[C@H]3CSSC[C@H](NC(=O)[C@H](CCCCN)NC(=O)[C@H](CCCNC(=N)N)NC(=O)[C@H](CC(N)=O)NC1=O)C(=O)N[C@@H](CCCCN)C(=O)N[C@H]1CSSC[C@H](NC(=O)[C@@H]4CCCN4C(=O)[C@H](CC(=O)O)NC(=O)[C@H](C)NC3=O)C(=O)N[C@@H](C)C(=O)N[C@@H](CCCCN)C(=O)N[C@@H](CCC(=O)O)C(=O)N[C@@H]([C@@H](C)O)C(=O)NCC(=O)N[C@@H](CSSC[C@@H](C(N)=O)NC(=O)[C@H](CCCNC(=N)N)NC(=O)[C@H](CC(N)=O)NC1=O)C(=O)N1CCC[C@H]1C(=O)N[C@@H](Cc1ccc(O)cc1)C(=O)NCC(=O)N[C@@H](CCCCN)C(=O)N2 [[^64Cu]Cu-NOTA-HsTX1[R14A], metal not drawn]",tissue uptake dose at 4 h,[1],0.21 ± 0.01 %ID
same,SUV at 24 h,"testes, iv, 0.3 MBq, rat, i.v., n=8, read-out: Testes SUV",0.87 ± 0.34 SUV
same,tissue uptake dose at 24 h,"testes, iv, 0.3 MBq, rat, i.v., n=8, read-out: Testes activity amount",1.05 ± 0.13 %ID
same,SUV at 48 h,"testes, iv, 0.3 MBq, rat, i.v., n=4, read-out: Testes SUV",0.5 ± 0.02 SUV
same,tissue uptake dose at 48 h,[1],0.76 ± 0.02 %ID
same,SUV at 1 h,[2],0.15 ± 0.01 SUV
same,tissue uptake dose at 1 h,[3],0.21 ± 0.01 %ID
same,SUV at 4 h,[2],0.12 ± 0.01 SUV
same,tissue uptake dose at 4 h,[3],0.2 ± 0.03 %ID
same,SUV at 24 h,[2],0.54 ± 0.02 SUV
same,tissue uptake dose at 24 h,[3],0.92 ± 0.06 %ID
same,SUV at 48 h,[2],0.44 ± 0.01 SUV
same,tissue uptake dose at 48 h,[3],0.63 ± 0.06 %ID
same,tissue uptake dose at 5 min,[4],0.37 ± 0.07 %ID
same,tissue uptake dose at 1 h,[5],0.37 ± 0.08 %ID
same,tissue uptake dose at 4 h,[4],0.37 ± 0.04 %ID
same,tissue uptake dose at 24 h,[5],0.21 ± 0.03 %ID
same,tissue uptake dose at 48 h,[4],0.17 ± 0.02 %ID
same,SUV at 5 min,[6],1.51 ± 0.08 SUV
same,SUV at 1 h,[7],1.33 ± 0.19 SUV
same,SUV at 4 h,[6],1.07 ± 0.02 SUV
same,SUV at 24 h,[7],0.74 ± 0.15 SUV
same,SUV at 48 h,[6],0.53 ± 0.02 SUV
same,tissue uptake dose at 1 h,[8],0.46 ± 0.01 %ID
same,tissue uptake dose at 4 h,[8],0.43 ± 0.04 %ID
same,tissue uptake dose at 24 h,[8],0.22 ± 0.01 %ID
same,tissue uptake dose at 48 h,[8],0.16 ± 0.02 %ID
same,SUV at 1 h,[9],1.15 ± 0.03 SUV
same,SUV at 4 h,[9],1.07 ± 0.11 SUV
same,SUV at 24 h,[9],0.63 ± 0.05 SUV
same,SUV at 48 h,[9],0.46 ± 0.05 SUV
same,tissue uptake dose at 5 min,[10],0.07 %ID
same,tissue uptake dose at 1 h,[11],0.11 ± 0.02 %ID
same,tissue uptake dose at 4 h,[10],0.12 ± 0.01 %ID
same,tissue uptake dose at 24 h,[11],0.08 ± 0.01 %ID
same,tissue uptake dose at 48 h,[10],0.07 ± 0.02 %ID
same,tissue uptake dose at 1 h,[12],0.13 ± 0.02 %ID
same,tissue uptake dose at 4 h,[12],0.11 ± 0.02 %ID
same,tissue uptake dose at 24 h,[12],0.09 ± 0.05 %ID
same,tissue uptake dose at 48 h,[12],0.03 ± 0.02 %ID
same,SUV at 5 min,[13],0.28 ± 0.06 SUV
same,SUV at 1 h,[14],0.19 ± 0.07 SUV
same,SUV at 4 h,[13],0.15 SUV
same,SUV at 24 h,[14],0.19 ± 0.09 SUV
same,SUV at 48 h,[13],0.34 ± 0.08 SUV
same,SUV at 1 h,[15],0.25 ± 0.05 SUV
same,SUV at 4 h,[15],0.17 ± 0.05 SUV
same,SUV at 24 h,[15],0.22 ± 0.01 SUV
same,SUV at 48 h,[15],0.17 ± 0.08 SUV
same,SUV at 4 h,[16],0.51 ± 0.02 SUV
same,SUV at 24 h,"whole blood, iv, 0.3 MBq, rat, i.v., n=8, read-out: Blood SUV",0.71 ± 0.16 SUV
same,SUV at 48 h,[16],0.38 ± 0.02 SUV
same,SUV at 1 h,"whole blood, sc, 0.3 MBq, rat, s.c., n=4, read-out: Blood SUV",0.65 ± 0.11 SUV
same,tissue uptake dose,"iv, 0.3 MBq, rat, i.v., 8 animals",48 ± 3 %ID
same,tissue uptake dose,"sc, 0.3 MBq, rat, s.c., 4 animals",45 ± 3 %ID
same,brain uptake,rat,negligible
same,AUC Kidney,"rat, i.v., n=8",1417 ± 102 SUV x h
same,AUC Liver,"rat, i.v., n=8","92,7 ± 11,0 SUV x h"
same,t1/2 Blood,"rat, i.v., n=8","49,5 h"
same,t1/2 Kidney,"rat, i.v., n=8","14,7 h"
same,t1/2 Liver,"rat, i.v., n=8","39,5 h"
same,Cmax Kidney,"rat, i.v., n=8","74,8 ± 12,8 SUV"
same,Cmax Liver,"rat, i.v., n=8","2,50 ± 0,57 SUV"
same,Peak time Blood,"rat, i.v., n=8",1 h
same,Peak time Kidney,"rat, i.v., n=8",1 h
same,Peak time Liver,"rat, i.v., n=8",24 h
same,AUC Kidney,"rat, s.c., n=4",1285 ± 57 SUV x h
same,AUC Liver,"rat, s.c., n=4","87,8 ± 9,5 SUV x h"
same,t1/2 Blood,"rat, s.c., n=4","46,4 h"
same,t1/2 Kidney,"rat, s.c., n=4","18,9 h"
same,t1/2 Liver,"rat, s.c., n=4","35,9 h"
same,Cmax Blood,"rat, s.c., n=4","0,65 ± 0,11 SUV"
same,Cmax Kidney,"rat, s.c., n=4","70,2 ± 4,1 SUV"
same,Cmax Liver,"rat, s.c., n=4","2,23 ± 0,32 SUV"
same,Peak time Blood,"rat, s.c., n=4",1 h
same,Peak time Kidney,"rat, s.c., n=4",4 h
same,Peak time Liver,"rat, s.c., n=4",24 h
same,biological half-life of the total activity in the rat body,s.c.,42.0 h
